Series [1] concerns Saccharomyces cerevisiae. The experiment in a line: protein stability index of tFT-peptide fusion (C-terminal peptide) (PSI (0-1 scale)); higher = more stable (slower turnover). The protocol: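 MPS profiling in S. cerevisiae of the tFT-X12 degron library: putative degron peptides plus stable controls, 12 aa, fused to the C-terminus of a sfGFP-mCherry timer. Cells are FACS-sorted into 8 mCherry/sfGFP bins and deep-sequenced. PSI runs from 0 (unstable) to 1 (stable). Backgrounds are wild type, das1Δ and doa10Δ at 30 °C, and wild type, das1Δ, cdc34-1 and cdc53-1 at 37 °C; 2-3 technical replicates each.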

The test system of series [2] is Saccharomyces cerevisiae. Described as above. As to conditions: genetic background: wild type; temperature: 30 C.
Setting [3] is: genetic background: cdc34-1, temperature: 37 C.
[4] abbreviates: genetic background: cdc53-1, temperature: 37 C.
Where [5] appears, read: genetic background: das1 deletion, temperature: 30 C.
[6] abbreviates: genetic background: das1 deletion, temperature: 37 C.
The mark [7] stands for this setting: genetic background: doa10 deletion, temperature: 30 C.
Setting [8] is: genetic background: wild type, temperature: 30 C.
The mark [9] stands for this setting: genetic background: wild type, temperature: 37 C.

± gives the standard deviation of the averaged measurements.
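Also: PSI is a weighted mean of sequencing reads over stability bins, variants kept only with over 10 reads, mCherry proximal and sfGFP distal, peptide attached via GGGS linker.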

For the sequence SFFSQAIPILAA, the protein stability index worked out at 0.0333 ± 0.0079 with Saccharomyces cerevisiae [1] (setting [3]); 0.039 ± 0.0039 in the series with Saccharomyces cerevisiae [1] (setting [4]); 0.152 ± 0.027 in the series on Saccharomyces cerevisiae [1] (setting [5]); 0.115 ± 0.015 in the series with Saccharomyces cerevisiae [1] (setting [6]); 0.129 ± 0.0039 with Saccharomyces cerevisiae [1] (setting [7]); 0.15 ± 0.021 in the series with Saccharomyces cerevisiae [1] (setting [8]). Also, the protein stability index with Saccharomyces cerevisiae [1] (setting [9]) is 0.0837 ± 0.023; in the series with Saccharomyces cerevisiae [2] it was 0.225 ± 0.072.

With SFLCILIFPFFP, the protein stability index is 0.497 ± 0.051 with Saccharomyces cerevisiae [1] (setting [3]); 0.6 ± 0.015 in the series with Saccharomyces cerevisiae [1] (setting [4]); 0.411 ± 0.02 in the series on Saccharomyces cerevisiae [1] (setting [5]); 0.6 ± 0.015 with Saccharomyces cerevisiae [1] (setting [6]); 0.391 ± 0.011 with Saccharomyces cerevisiae [1] (setting [7]); 0.408 ± 0.028 with Saccharomyces cerevisiae [1] (setting [8]). Besides, the protein stability index worked out at 0.5623 ± 0.0044 with Saccharomyces cerevisiae [1] (setting [9]) and 0.469 ± 0.034 in the series with Saccharomyces cerevisiae [2].

Take SFSFRPCLLLFF: the protein stability index with Saccharomyces cerevisiae [1] (setting [3]) amounted to 0.32771 ± 1.1e-05; in the series with Saccharomyces cerevisiae [1] (setting [4]) it was 0.355 ± 0.0074; in the series with Saccharomyces cerevisiae [1] (setting [5]), 0.357 ± 0.036; in the series on Saccharomyces cerevisiae [1] (setting [6]) it was 0.51 ± 0.0096; in the series on Saccharomyces cerevisiae [1] (setting [7]), 0.38211 ± 0.00035; in the series on Saccharomyces cerevisiae [1] (setting [8]), 0.283 ± 0.033. In addition, the protein stability index in the series with Saccharomyces cerevisiae [1] (setting [9]) came to 0.417 ± 0.021; in the series with Saccharomyces cerevisiae [2] it was 0.336 ± 0.099.

Take SFVFLVRRWLFV: the protein stability index is 0.354 ± 0.071 in the series on Saccharomyces cerevisiae [1] (setting [3]); 0.582 ± 0.02 in the series with Saccharomyces cerevisiae [1] (setting [4]); 0.563 ± 0.011 with Saccharomyces cerevisiae [1] (setting [5]); 0.622 ± 0.023 in the series on Saccharomyces cerevisiae [1] (setting [6]); 0.136 ± 0.0077 in the series on Saccharomyces cerevisiae [1] (setting [7]); 0.133 ± 0.017 in the series with Saccharomyces cerevisiae [1] (setting [8]). Further, the protein stability index stood at 0.159 ± 0.011 with Saccharomyces cerevisiae [1] (setting [9]) and 0.213 ± 0.025 with Saccharomyces cerevisiae [2].

With SFYVCVPVLWLV, the protein stability index in the series with Saccharomyces cerevisiae [1] (setting [3]) is 0.248 ± 0.024; in the series on Saccharomyces cerevisiae [1] (setting [4]) it was 0.29 ± 0.036; in the series on Saccharomyces cerevisiae [1] (setting [5]), 0.27 ± 0.029; in the series with Saccharomyces cerevisiae [1] (setting [6]), 0.407 ± 0.0054; in the series with Saccharomyces cerevisiae [1] (setting [7]), 0.136 ± 0.0076; in the series with Saccharomyces cerevisiae [1] (setting [8]), 0.118 ± 0.015. Moreover, the protein stability index in the series on Saccharomyces cerevisiae [1] (setting [9]) stood at 0.146 ± 0.028; with Saccharomyces cerevisiae [2] it was 0.201 ± 0.0038.

On to SGRAWRLRMHVI, for which the protein stability index was found to be 0.663 ± 0.02 in the series with Saccharomyces cerevisiae [1] (setting [3]); 0.749 ± 0.011 in the series with Saccharomyces cerevisiae [1] (setting [4]); 0.661 ± 0.037 with Saccharomyces cerevisiae [1] (setting [5]); 0.757 ± 0.018 in the series with Saccharomyces cerevisiae [1] (setting [6]); 0.263 ± 0.0029 in the series with Saccharomyces cerevisiae [1] (setting [7]); 0.269 ± 0.012 in the series on Saccharomyces cerevisiae [1] (setting [8]). Also, the results for the protein stability index in the series with Saccharomyces cerevisiae [1] (setting [9]) and with Saccharomyces cerevisiae [2] were 0.459 ± 0.041 and 0.406 ± 0.17, respectively.

On to SGRFRAFVLRSM, for which the protein stability index was 0.692 ± 0.012 in the series with Saccharomyces cerevisiae [1] (setting [3]); 0.746 ± 0.01 in the series on Saccharomyces cerevisiae [1] (setting [4]); 0.646 ± 0.029 in the series on Saccharomyces cerevisiae [1] (setting [5]); 0.7 ± 0.036 with Saccharomyces cerevisiae [1] (setting [6]); 0.272 ± 0.019 with Saccharomyces cerevisiae [1] (setting [7]); 0.298 ± 0.035 in the series with Saccharomyces cerevisiae [1] (setting [8]). In addition, the protein stability index in the series on Saccharomyces cerevisiae [1] (setting [9]) was 0.56 ± 0.032; in the series on Saccharomyces cerevisiae [2], 0.476 ± 0.0099.

SGRFRFVLLGLV: the protein stability index in the series on Saccharomyces cerevisiae [1] (setting [3]) came out at 0.558 ± 0.032; in the series with Saccharomyces cerevisiae [1] (setting [4]), 0.601 ± 0.008; in the series on Saccharomyces cerevisiae [1] (setting [5]), 0.455 ± 0.03; with Saccharomyces cerevisiae [1] (setting [6]), 0.632 ± 0.00071; in the series on Saccharomyces cerevisiae [1] (setting [7]) it was 0.122 ± 0.023; with Saccharomyces cerevisiae [1] (setting [8]) it was 0.156 ± 0.023. The protein stability index in the series on Saccharomyces cerevisiae [1] (setting [9]) was 0.253 ± 0.0054; with Saccharomyces cerevisiae [2], 0.203 ± 0.021.

For SGVVWFYIFCLS, the protein stability index came to 0.4729 ± 0.00067 with Saccharomyces cerevisiae [1] (setting [3]); 0.535 ± 0.0018 with Saccharomyces cerevisiae [1] (setting [4]); 0.322 ± 0.038 in the series on Saccharomyces cerevisiae [1] (setting [5]); 0.57 ± 0.015 in the series with Saccharomyces cerevisiae [1] (setting [6]); 0.254 ± 0.014 in the series with Saccharomyces cerevisiae [1] (setting [7]); 0.279 ± 0.043 in the series with Saccharomyces cerevisiae [1] (setting [8]). Moreover, the results for the protein stability index in the series with Saccharomyces cerevisiae [1] (setting [9]) and in the series with Saccharomyces cerevisiae [2] were 0.494 ± 0.023 and 0.361 ± 0.011, respectively.

Turning to SINKLLILIKSI, the protein stability index in the series with Saccharomyces cerevisiae [1] (setting [3]) turned out to be 0.429 ± 0.026; in the series on Saccharomyces cerevisiae [1] (setting [4]), 0.618 ± 0.028; in the series with Saccharomyces cerevisiae [1] (setting [5]), 0.525 ± 0.03; in the series with Saccharomyces cerevisiae [1] (setting [6]) it was 0.629 ± 0.018; in the series with Saccharomyces cerevisiae [1] (setting [7]), 0.0798 ± 0.019; in the series on Saccharomyces cerevisiae [1] (setting [8]), 0.0738 ± 0.0087. Further, the protein stability index in the series on Saccharomyces cerevisiae [1] (setting [9]) came to 0.112 ± 0.069; in the series on Saccharomyces cerevisiae [2], 0.13 ± 0.028.

In the case of SIWVGSRFRWVV, the protein stability index amounted to 0.642 ± 0.0088 with Saccharomyces cerevisiae [1] (setting [3]); 0.7361 ± 0.0011 in the series on Saccharomyces cerevisiae [1] (setting [4]); 0.665 ± 0.034 in the series with Saccharomyces cerevisiae [1] (setting [5]); 0.7748 ± 0.0015 in the series with Saccharomyces cerevisiae [1] (setting [6]); 0.134 ± 0.017 in the series with Saccharomyces cerevisiae [1] (setting [7]); 0.134 ± 0.021 with Saccharomyces cerevisiae [1] (setting [8]). In addition, the protein stability index with Saccharomyces cerevisiae [1] (setting [9]) came out at 0.344 ± 0.052; with Saccharomyces cerevisiae [2] it was 0.35 ± 0.062.

SLCELRCLLRVG: the protein stability index in the series with Saccharomyces cerevisiae [1] (setting [3]) was 0.573 ± 0.027; in the series on Saccharomyces cerevisiae [1] (setting [4]) it was 0.636 ± 0.022; with Saccharomyces cerevisiae [1] (setting [5]), 0.522 ± 0.017; with Saccharomyces cerevisiae [1] (setting [6]), 0.631 ± 0.0023; in the series on Saccharomyces cerevisiae [1] (setting [7]), 0.471 ± 0.018; in the series with Saccharomyces cerevisiae [1] (setting [8]), 0.481 ± 0.018. The protein stability index is 0.606 ± 0.013 in the series on Saccharomyces cerevisiae [1] (setting [9]) and 0.473 ± 0.021 in the series with Saccharomyces cerevisiae [2].

Turning to SLCSSVQVWSVV, the protein stability index with Saccharomyces cerevisiae [1] (setting [3]) is 0.7 ± 0.049; in the series with Saccharomyces cerevisiae [1] (setting [4]), 0.763 ± 0.024; in the series on Saccharomyces cerevisiae [1] (setting [5]) it was 0.612 ± 0.013; in the series on Saccharomyces cerevisiae [1] (setting [6]), 0.732 ± 0.011; in the series with Saccharomyces cerevisiae [1] (setting [7]) it was 0.5868 ± 0.0032; in the series on Saccharomyces cerevisiae [1] (setting [8]), 0.634 ± 0.037. Besides, the protein stability index with Saccharomyces cerevisiae [1] (setting [9]) was found to be 0.716 ± 0.011; in the series with Saccharomyces cerevisiae [2], 0.693 ± 0.027.

As for SLLFPLPRPLLD, the protein stability index amounted to 0.7 ± 0.013 in the series with Saccharomyces cerevisiae [1] (setting [3]); 0.754 ± 0.018 with Saccharomyces cerevisiae [1] (setting [4]); 0.677 ± 0.015 in the series with Saccharomyces cerevisiae [1] (setting [5]); 0.719 ± 0.016 with Saccharomyces cerevisiae [1] (setting [6]); 0.686 ± 0.014 in the series on Saccharomyces cerevisiae [1] (setting [7]); 0.672 ± 0.024 in the series with Saccharomyces cerevisiae [1] (setting [8]). Besides, the protein stability index with Saccharomyces cerevisiae [1] (setting [9]) is 0.7183 ± 0.005; with Saccharomyces cerevisiae [2] it was 0.731 ± 0.016.

As to SLRSRSLRCRLS, the protein stability index was determined as 0.619 ± 0.056 in the series on Saccharomyces cerevisiae [1] (setting [3]); 0.755 ± 0.024 in the series on Saccharomyces cerevisiae [1] (setting [4]); 0.723 ± 0.0081 in the series with Saccharomyces cerevisiae [1] (setting [5]); 0.749 ± 0.031 with Saccharomyces cerevisiae [1] (setting [6]); 0.288 ± 0.0071 with Saccharomyces cerevisiae [1] (setting [7]); 0.297 ± 0.0095 with Saccharomyces cerevisiae [1] (setting [8]). Besides, the values for the protein stability index with Saccharomyces cerevisiae [1] (setting [9]) and in the series with Saccharomyces cerevisiae [2] were 0.489 ± 0.031 and 0.38 ± 0.005, respectively.

The values above are taken from the supplement of paper PMC10724198.
